The values below come from paper PMC12311110.

The target in test [1] is VPS35, Q96QK1. Kind of test: GFP-based co-IP, western blot band quantification. The conditions noted are these: chain shown with the change; HEK293T cells, transient transfection; normalised to GFP band intensity; n = 3; parent: est. 100; read off a plot. Background: A western blot detects proteins with antibodies after separation by electrophoresis.
Test [2] concerns the target endogenous VPS26, O75436. Kind of test: GFP-based co-IP, western blot band quantification. The conditions noted are these: chain shown with the change; HEK293T cells, transient transfection; normalised to GFP band intensity; n = 3; parent: est. 100; read off a plot.

B1: GFP-DENND4C fragment 1087-1271, WT, Q5VZ89 Y1239D (protein)
chain: PKTSLLHIARTHSFENVSCHLPDSRTCMSESTWNPEHRSSPVPEMLEESQELLEPVVDDVPKTTATVDTYESLLSDSNSNQSRDLKTVSKDLRNKRSSLYGIAKVVQREDVETGLDPLSLLATECTGGKTPDSEDKLFSPVIARNLADEIESDMNLKSPLGSKSSSMELHREENRESGMTTAFIH
For the molecule B1, the percent of parent (relative intensity (WT = 100)) in test [1] turned out to be 22; in test [2] it was 18.
